Results reported in patent US20230146533A1, “KERATIN BD-10, PREPARATION METHOD THEREFOR AND PHARMACEUTICAL COMPOSITION AND USE THEREOF” (INSTITUTE OF MATERIA MEDICA, CHINESE ACADEMY OF MEDICAL …, priority 2019, published 2023).

Tests used:
[1] = system: yeast-induced fever model in rats; assay: Yeast-induced fever model in SD rats; type: in vivo; conditions: for Body temperature 2 hours after modeling / Body temperature 4 hours after modeling / Body temperature 6 hours after modeling / Body temperature 8 hours after modeling: 20% yeast suspension 10 ml/kg s.c., SD rats
Experimental: Animals: 230-260 grams of male SD rats; Medicines: yeast (OXOID LP0021), aspirin (SIGMA A2093), protein BD-10; Instruments: electronic balance (SARTORIUS BP121S type), electronic clinical thermometer (CITIZEN CT-513W type). Experiment grouping: • Normal control group; • Model group: yeast fever model; • Positive control group: Aspirin 300 mg/kg group; • Protein BD-10, 10 mg/kg group, 50 mg/kg group.
Preparation of experimental animals: After the experimental animals adapt to the experimental environment (temperature 22° C.±2° C., relative humidity 50%±2%) for 1 day. Pre-adaptation to measure rectal temperature at 8:00 and 15:00, rats were fasted and water was taken freely 12 h before experiment, and let the animal to empty its feces before measuring the rectal temperature. Apply petroleum jelly to the electronic thermometer probe before each temperature measurement. Insert the rat rectum 2 cm (can be marked at 2 cm to ensure that the depth of each insertion is consistent), and record the body temperature after the reading is stable.
Subcutaneous injection of dry yeast to replicate rat fever model: The body temperature of the rats was measured before modeling. Qualified rats with a body temperature of 36.2-37.3° C. were selected and randomly divided into groups with 8 rats in each group. After oral administration of aspirin and different doses of protein BD-10, 20% yeast suspension (10 ml/kg) was injected subcutaneously immediately, and the normal control group was injected intraperitoneally with an equal volume of normal saline. The body temperatures of the rats were monitored after 2 hours for a total of 8 hours.
According to the body temperature measured at each time point on the day of the experiment, calculate the mean, standard deviation and standard error of the body temperature of each group of rats. The data of each group was compared with TTEST, and P<0.05 was considered as a significant difference.

[2] = system: mice cough induced by ammonia water; assay: Antitussive test, cough induced by ammonia water in mice; type: in vivo, ICR mice; conditions: for Incubation period (cough) / Number of coughs: 10% ammonia water atomized 10 seconds one hour later, X ± SEM; for Number of coughs: coughs within 2 minutes
Experimental: Animals: male ICR mice; Drugs and reagents: dextromethorphan hydrobromide, ammonia water, 0.2% CMC-Na, protein BD-10; Apparatus: Compressed nebulizer (403T type), balance (XS105DU type). Experiment grouping: • Solvent control group; • Dextromethorphan 15 mg/kg group; • Protein BD-10, 20 mg/kg group, 50 mg/kg group.
Dextromethorphan and different doses of protein BD-10 (administration volume 10 ml/kg) were given orally in groups, and the solvent control group was given the same volume of distilled water. One hour later, mice were put into a sealed box and atomized 10% ammonia water for 10 seconds, and then observed and recorded the incubation period of cough in mice and the number of coughs in 2 minutes.
Record the time point of oral administration, the time point of atomization experiment, the incubation period of mice cough and the number of coughs within 2 minutes, respectively. The incubation period of cough refers to the number of seconds from the start of the atomization of ammonia to the occurrence of cough. The performance of coughing in mice is based on contraction of their abdominal muscles (breast contraction) and opening their mouths at the same time. Calculate the mean and standard error of each group of data, and use TTEST to compare the model group with other groups, and P<0.05 is considered as a significant difference.

[3] = system: PTZ-induced epilepsy in mice; assay: Pentylenetetrazole (PTZ) induced epilepsy in mice; type: in vivo, ICR mice; conditions: for Grade IV seizure rate / mortality rate / Grade III seizure incubation period / Grade IV seizure incubation period / Cases of deaths / Cases of Grade IV: PTZ 65 mg/kg i.p.; for Grade IV seizure rate / mortality rate: 10 mice; for Grade III seizure incubation period / Grade IV seizure incubation period: mean ± SEM; for Grade IV seizure incubation period: mice not reaching Grade IV recorded as maximum 900 seconds; for Cases of deaths / Cases of Grade IV: of 10 mice; for Cases of Grade IV: 15 minutes observation
Experimental: Medicines: Pentylenetetrazol (PTZ), Retigabine, Protein BD-10.
Experiment grouping: • Model group; • Retigabine 60 mg/kg group; • Protein BD-10, 50 mg/kg group, 200 mg/kg group;
The drug was administered once in the afternoon the day before modeling, On the day of modeling, PTZ-65 mg/kg (modeling agent) was injected intraperitoneal 1 hour after the test drug was administered intragastrically, and the positive drug can be administered once half an hour before modeling. Continue to observe for 15 minutes after injection of PTZ.
Observation index: (1)Seizure situation: the time of seizures from Grade III to Grade VI; (2)Death situation
Seizure grade: Refer to Racine grading standard: Grade 0: No response; Grade I: manifested as twitching of facial muscles or the corners of the mouth; Grade II: can nod; Grade III: twitching of one limb; Grade IV: rigidity or body twitching; Grade V: generalized epilepsy (generalized tonic seizures).
Count the cases of seizures and deaths in each group of mice in the experiment; Grade III and IV incubation period. The incubation period of mice that have not attacked to Grade IV is recorded as the maximum of 900 seconds. Chi-square test was used for statistics of the number of cases. Calculate the mean and standard error of the incubation period. Use TTEST to compare the model group with other groups, and P<0.05 is considered as a significant difference.

[4] = system: acetic acid writhing of ICR mice; assay: Acetic acid writhing test in ICR mice; type: in vivo; conditions: for Frequency of writhing / Writhing incubation period: observed within 15 minutes
Experimental: Animals: male ICR mice; Drugs and reagents: aspirin, physiological saline, glacial acetic acid, protein BD-10. Experiment grouping: • Model group; • Aspirin 300 mg/kg group; • Protein BD-10, 50 mg/kg group, 200 mg/kg group.
One day after the experimental animals adapt to the environment, Aspirin 300 mg/kg, protein BD-10 50 mg/kg, 200 mg/kg were given orally one hour in advance, and the administration volume was 10 ml/kg; Then, 0.6% acetic acid solution was injected intraperitoneally, and the incubation period (seconds) and frequency of writhing in the animal was observed within 15 minutes.
Calculate the mean and standard error of the data in each group. Compared with the model group by TTEST, P<0.05 was considered as statistically different.

[5] = BD-10 50 mg/kg oral one hour before 0.6% acetic acid i.p.
[6] = BD-10 200 mg/kg oral one hour before 0.6% acetic acid i.p.

B1: BD-10: recombinant keratin with amino acid sequence SEQ ID NO:1, expressed in E. coli inclusion bodies, band around 55 kD (protein, listed as Bos taurus)
chain: MSCRSYRISPGYSVTRTFSSCSAVAPKTGSRCCITAAPYRGVSCYRGLTGFGSRSVSALGSCGPRIAVGGFRAGSCNRSFGYRSGGVGGLSPPCITTVSVNESLLTPLNLEIDPNAQCVKHEEKEQIKNLNSRFAAFIDKVRFLEQQNKLLETKWQFYQNQRCCESNLEPLFNGYIETLRREAEHVEADGGRLASELNHVQEVLEGYKKKYEEEVALRATAENEFVVLKKDVDCAYLRKSDLEANVEALVEESNFLKRLYDEEIQILNAHISDTSVIVKMDNSRDLNMDCVVAEIKAQYDDIASRSRAEAESWYRNKCEEMKATVIRHGETLRRTKEEINELNRIIQRLTAEIENAKCQRTKLEAAVAEAEQQGEAALNDARCKLAGLEEALQKAKQDMACLLKEYQEVMNSKLGLDIEIATYRRLLEGEEQRLCEGVGSVNVCVSSSRGGVTCGGLTYSTTAGRQIASGPVATGGSITVLAPDSCVPCQPRASSFSCGSSRSVRFA
Body temperature 2 hours after modeling ([1]; BD-10 10 mg/kg oral): 36.8 ± 0.05 °C
Body temperature 4 hours after modeling ([1]; BD-10 10 mg/kg oral): 37.2 ± 0.1 °C
Body temperature 6 hours after modeling ([1]; BD-10 10 mg/kg oral): 37.4 ± 0.1 °C
Body temperature 8 hours after modeling ([1]; BD-10 10 mg/kg oral): 37.5 ± 0.1 °C
Body temperature 2 hours after modeling ([1]; BD-10 50 mg/kg oral): 37.0 ± 0.1 °C
Body temperature 4 hours after modeling ([1]; BD-10 50 mg/kg oral): 37.4 ± 0.04 °C
Body temperature 6 hours after modeling ([1]; BD-10 50 mg/kg oral): 37.4 ± 0.01 °C
Body temperature 8 hours after modeling ([1]; BD-10 50 mg/kg oral): 37.4 ± 0.09 °C
Effect on increase in body temperature (in words, summary) ([1]; BD-10, dose not stated, 2, 4, 6 and 8 hours after modeling): can significantly inhibit the increase in body temperature
Effect on body temperature of model rats (in words) ([1]; different doses of BD-10 (10, 50 mg/kg), most time points after modeling, vs model group P<0.05): can inhibit the increase in body temperature of model rats to varying degrees
Incubation period (cough) ([2]; BD-10 20 mg/kg oral): 31.4 ± 2.6 s
Number of coughs ([2]; BD-10 20 mg/kg oral): 55.3 ± 4.2
Incubation period (cough) ([2]; BD-10 50 mg/kg oral): 29.4 ± 3.0 s
Number of coughs ([2]; BD-10 50 mg/kg oral): 59.8 ± 3.9
Effect on incubation period and number of coughs (in words) ([2]; BD-10, dose not stated, not statistically significant): has a tendency to prolong the incubation period and reduce the number of coughs
Grade IV seizure rate ([3]; BD-10 50 mg/kg intragastric): 80%
mortality rate ([3]; BD-10 50 mg/kg intragastric): 0%
Grade III seizure incubation period ([3]; BD-10 50 mg/kg intragastric): 63 ± 2 s
Grade IV seizure incubation period ([3]; BD-10 50 mg/kg intragastric): 296 ± 106 s
Cases of deaths ([3]; BD-10 50 mg/kg intragastric): 0
Cases of Grade IV ([3]; BD-10 50 mg/kg intragastric): 8
Grade IV seizure rate ([3]; BD-10 200 mg/kg intragastric): 70%
mortality rate ([3]; BD-10 200 mg/kg intragastric): 0%
Grade III seizure incubation period ([3]; BD-10 200 mg/kg intragastric): 81 ± 9 s
Grade IV seizure incubation period ([3]; BD-10 200 mg/kg intragastric): 359 ± 120 s
Cases of deaths ([3]; BD-10 200 mg/kg intragastric): 0
Cases of Grade IV ([3]; BD-10 200 mg/kg intragastric): 7
Effect on incubation period of Grade IV epilepsy (in words) ([3]; BD-10, PTZ model, no statistical difference compared with the model group): has a tendency to extend the incubation period
Effect on writhing (in words) ([4]; BD-10 50 mg/kg and 200 mg/kg dose groups, vs model group P<0.05): can significantly reduce the number of writhing mice
Frequency of writhing [4, 5]: 22.7 ± 3.9 times
Writhing incubation period [4, 5]: 237.4 ± 44.8 s
Frequency of writhing [4, 6]: 19.8 ± 3.7 times
Writhing incubation period [4, 6]: 251.2 ± 43.3 s
Effect on number of writhing times (in words, summary) ([4]; BD-10, dose not stated): can significantly reduce the number of writhing times
